Consider 2 compounds from patent publication US9314421B2, “Ultrasound-enhanced intrascleral delivery of macromolecules” (The Hong Kong University of Science and Technology, priority 2009, dated 2016).

“And” between values parts separate entries of the source, which are not always exact repeats. Identical values can stand only once.

For data set [1] the following is noted: with ultrasound; cited from earlier work.
The format of data set [2] is in vitro ADME, New Zealand White Rabbit. The method, then: The eyes of New Zealand White Rabbits (6-month to one-year-old) were enucleated immediately after the rabbits were sacrificed. The eyes were kept on ice prior to experiments and the time lag never exceeded 15 minutes to ensure tissue freshness. All the periocular tissues (muscles and conjunctiva) were removed and the optic nerve was sealed with Vaseline®. The eye was immersed in a container filled with 4 ml of 0.1% FITC-BSA or BBS+®. An ultrasound transducer with a probe size of 1 cm^2 (BTL-4000, BTL Industries, Inc., Clark, N.J.) was positioned a few millimeters above the sclera near the equator. The zone of ultrasound application was labeled with a marker. Ultrasound at a therapeutic frequency (1 MHz) and a low power input (0.5 W/cm^2) was applied for 30 seconds. The eye continued to be immersed in 0.1% FITC-BSA or BBS+® for different time intervals (5, 15, 30 and 60 minutes for 0.1% FITC-BSA; 15 minutes for BSS+®). All of the experiments were carried out at room temperature. The scleral surface temperature at the ultrasound application zone before and after treatment was measured using a thermocouple. Controls were performed by immersing the eyes for different time intervals without ultrasound application.
Immediately after the ex vivo experiments, the whole eye was washed and immersed in a mould filled with optimum cutting temperature medium (O.C.T) (Leica, Wetzlar, Germany), followed by quick-freezing in liquid nitrogen. 10 μm thick sections across the marked ultrasound application zone of the eye were cut using a cryostat (CM1850, Leica, Wetzlar, Germany). Polylysine-coated slides were used for collecting the tissue sections.
All images were acquired using a fluorescence microscope (BX 41, Olympus, Center Valley, Pa.). The image of the sclera was captured under optical mode, and FITC-BSA penetration into the sclera was captured under fluorescence mode (bandpass filter: 510-550 nm, dichroic mirror: 570 nm, barrier filter: 590 nm, exposure time: […]). The pictures shown in the FIGS. 15-17 were merged images of these two modes. The thickness of the sclera and the penetration distance of FITC-BSA were obtained using the software SPOT® (Diagnostic Instruments, Inc., MI, USA). For each experiment or control, 2 to 4 eyes from different rabbits were used. Three tissue sections were obtained from each eye and at least 20 measurements on the penetration distance were made in each eye. Only images showing intact sclera were used for measurement to avoid ambiguity.
In the first set of experiments, the parameters of the ultrasound used were set as follows: frequency: 1 MHz, power: 0.5 W/cm^2, application duration: 30 seconds, size of transducer: 1 cm^2. Freshly enucleated New Zealand White Rabbit eyes were used as an ex vivo eye model, and 65 kDa protein fluorescent albumin was used as the model macromolecule. Whole rabbit eyes were immersed in fluorescent albumin solution. Ultrasound was applied for 30 s and then the eyes were kept in fluorescent albumin for 5, 15 or 30 minutes. For the control experiment, the eyes were immersed in fluorescent albumin for 15 minutes without ultrasound application. The eyes were then flash frozen in OCT (Optimum Cutting Temperature) medium with liquid nitrogen and sectioned in cryostat for further investigation.
Briefly, the parameters of the ultrasound were set as follows: frequency: 1 MHz, power: 0.5 W/cm^2, application duration: 30 seconds, size of transducer: 1 cm^2. […]

The nature of data set [3]: Calculation of intrascleral diffusivity from penetration distance versus square root of time. It is filed as in vitro ADME, New Zealand White Rabbit. The note with it: for intrascleral diffusivity: 37° C. As for the experimental part: The one-dimensional diffusion model describing the penetration distance (L), diffusivity (D) and time of diffusion (t) is given by the equation below (23): L=√{square root over (2Dt)}. (1)
A plot of the penetration distance versus the square root of time yields a straight line. The diffusivity is calculated from the slope, which equals […].
The diffusivity measured at room temperature is converted to the value at 37° C. according to Stokes-Einstein equation, which gives
[formula] where D and η are diffusivity and viscosity respectively, with the temperature designated at the subscript. Since the experiment was conducted in dilute buffer solution, the viscosity of water is used. Histological Study

With `O=C([O-])c1ccccc1-c1c2ccc(=O)cc-2oc2cc([O-])ccc12.[Na+].[Na+]` [sodium fluorescein], the “enhancement of delivery through the cornea versus passive diffusion” value in data set [1] is “ten times”.

“FITC-BSA: 65 kDa protein fluorescent albumin used as the model macromolecule”: in data set [2], the “depth of intrascleral site reached” value is reported as “about 110 μm”, the “increase in percentage of depth of protein penetration versus control” value is listed as 4 folds, the “level of penetration (qualitative)” value is listed as “failed to penetrate into the sclera” and the penetration depth is on record as 15.8±5.7 μm. Also, the “penetration versus sample without 15-minute BSS+ pretreatment” value in data set [2] is “much lower”. The “increase in ocular diffusivity” value in data set [3] (0.5 W/cm^2, 1 MHz ultrasound for 30 seconds) was 2 folds. Besides, the intrascleral diffusivity in data set [3] (control without ultrasound) is 3.90×10^−08 cm^2/sec. The intrascleral diffusivity in data set [3] (with ultrasound, first 15 min) is 6.17×10^−8 cm^2/sec and 6.17×10^−08 cm^2/sec. Further, the intrascleral diffusivity in data set [3] (with ultrasound, from 15 to 60 min) is 4.18×10^−8 cm^2/sec. In addition, the “increase in diffusivity by ultrasound treatment” value in data set [3] (first 15 minutes, ultrasound versus no ultrasound) is recorded as 1.6 times.
